In article PMC3413146 (Nucleic Acids Research, 2012):

Molecular target: T1, RECQL4 (endogenous) (human (endogenous in HeLa), UniProt O94761 1-1208)
T1 sequence (looked up): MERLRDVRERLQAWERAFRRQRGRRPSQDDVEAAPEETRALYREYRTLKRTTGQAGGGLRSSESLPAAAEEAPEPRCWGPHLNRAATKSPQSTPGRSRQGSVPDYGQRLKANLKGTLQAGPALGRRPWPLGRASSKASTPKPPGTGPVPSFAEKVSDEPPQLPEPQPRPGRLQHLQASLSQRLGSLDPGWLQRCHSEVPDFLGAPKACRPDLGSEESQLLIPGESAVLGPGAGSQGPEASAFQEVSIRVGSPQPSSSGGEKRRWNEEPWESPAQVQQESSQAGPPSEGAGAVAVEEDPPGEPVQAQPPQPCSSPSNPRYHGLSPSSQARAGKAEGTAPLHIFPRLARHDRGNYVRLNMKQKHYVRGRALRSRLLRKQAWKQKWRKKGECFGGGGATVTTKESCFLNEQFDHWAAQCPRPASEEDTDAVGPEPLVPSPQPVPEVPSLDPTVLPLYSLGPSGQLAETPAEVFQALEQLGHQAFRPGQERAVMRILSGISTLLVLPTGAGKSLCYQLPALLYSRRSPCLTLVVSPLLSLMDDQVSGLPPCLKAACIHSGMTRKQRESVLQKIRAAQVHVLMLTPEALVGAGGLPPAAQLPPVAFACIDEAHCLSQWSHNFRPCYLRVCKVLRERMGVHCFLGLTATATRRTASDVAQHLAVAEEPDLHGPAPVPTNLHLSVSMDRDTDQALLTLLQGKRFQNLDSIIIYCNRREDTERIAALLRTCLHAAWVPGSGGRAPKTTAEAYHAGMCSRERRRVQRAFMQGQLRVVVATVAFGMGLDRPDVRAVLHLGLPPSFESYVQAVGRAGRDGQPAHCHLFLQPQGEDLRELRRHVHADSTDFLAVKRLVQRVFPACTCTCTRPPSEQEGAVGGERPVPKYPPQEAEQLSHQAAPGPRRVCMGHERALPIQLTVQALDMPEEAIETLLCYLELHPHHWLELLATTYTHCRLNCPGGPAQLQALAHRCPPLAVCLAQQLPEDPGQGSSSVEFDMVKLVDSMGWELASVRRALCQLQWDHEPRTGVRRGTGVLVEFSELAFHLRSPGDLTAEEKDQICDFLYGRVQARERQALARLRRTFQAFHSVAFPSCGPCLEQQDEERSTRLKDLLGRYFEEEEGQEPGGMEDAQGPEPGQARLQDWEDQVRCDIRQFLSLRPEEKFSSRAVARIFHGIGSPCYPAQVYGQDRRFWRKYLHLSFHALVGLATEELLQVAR
Test: co-IP

fold change of the co-immunoprecipitated BLM signal, S-phase against G0–G1 phase: ~5 fold
B1: BLM (endogenous) (natural protein)
chain: not shown
